Measurements from patent US6689574B1, “Assays for nuclear receptor agonists and antagonists using fluorescence resonance energy transfer” (Merck & Co., Inc., priority 1997, dated 2004).

B2: biotin-labeled hPPARγ1LBD (human PPARγ1 ligand binding domain, amino acids 176-478, cleaved free of GST) (receptor)
chain: SHNAIRFGRIAQAEKEKLLAEISSDIDQLNPESADLRQALAKHLYDSYIKSFPLTKAKARAILTGKTTDKSPFVIYDMNSLMMGEDKIKFKHITPLQEQSKEVAIRIFQGCQFRSVEAVQEITEYAKSIPGFVNLDLNDQVTLLKYGVHEIIYTMLASLMNKDGVLISEGQGFMTREFLKSLRKPFGDFMEPKFEFAVKFNALELDDSDLAIFIAVIILSGDRPGLLNVKPIEDIQDNLLQALELQLKLNHPESSQLFAKLLQKMTDLRQIVTEHVQLLQVIKKTETDMSLHPLLQEIYKDLY
modifications: biotinylated with Sulfo-NHS-LC-Biotin to a biotin:hPPARγ1LBD ratio of 3:1; sites not stated
notes: Made from pGEX-KG as a GST fusion and cleaved free of GST; In the assay it carried streptavidin-labeled XL665 through the biotin; also called biotin-hPPARγ1LBD
B3: Eu3+K-labeled hCBP1-113 (NH2-terminal amino acids 1-113 of human CBP, cleaved from GST with thrombin, directly labeled with europium cryptate) (other)
chain: MAENLLDGPPNPKRAKLSSPGFSANDSTDFGSLFDLENDLPDELIPNGGELGLLNSGNLVPDAASKHKQLSELLRGGSGSSINPGIGNVSASSPVQQGLGGQAQGQPNSANMA
modifications: directly labeled with europium cryptate (Eu3+K); labeled residues not stated
notes: Made as a GST fusion in E. coli (pGEX) and cleaved with thrombin; The preparation gave two bands, 12 kd (expected) and 10 kd (likely a premature termination product)

Assays:
[1] = target: PPARγ1LBD (Homo sapiens, UniProt P37231); test: Binding constant for hCBP/PPARγ1LBD interaction by FRET competition with non-biotinylated hCBP1-453 (FIG. 6); set-up: amino acids 176-478 of PPARγ1; made in house; host or cells: E. coli (DH5α); details: saturating PPARγ agonist (10 μM BRL49653); derived from FIG. 6; read-out: Kd for the interaction between hCBP1-453 and PPARγ1LBD
Chain of PPARγ1LBD (P37231 204-505): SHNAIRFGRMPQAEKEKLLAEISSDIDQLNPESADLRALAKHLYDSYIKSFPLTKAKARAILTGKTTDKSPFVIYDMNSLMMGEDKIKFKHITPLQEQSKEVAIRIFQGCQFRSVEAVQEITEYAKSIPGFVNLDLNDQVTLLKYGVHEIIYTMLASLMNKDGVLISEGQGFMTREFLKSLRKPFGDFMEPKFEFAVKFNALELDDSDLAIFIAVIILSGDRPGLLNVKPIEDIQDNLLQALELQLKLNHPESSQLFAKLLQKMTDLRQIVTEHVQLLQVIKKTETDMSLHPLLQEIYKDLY
Chain of PPARγ1LBD (Q92793 1-453 partner): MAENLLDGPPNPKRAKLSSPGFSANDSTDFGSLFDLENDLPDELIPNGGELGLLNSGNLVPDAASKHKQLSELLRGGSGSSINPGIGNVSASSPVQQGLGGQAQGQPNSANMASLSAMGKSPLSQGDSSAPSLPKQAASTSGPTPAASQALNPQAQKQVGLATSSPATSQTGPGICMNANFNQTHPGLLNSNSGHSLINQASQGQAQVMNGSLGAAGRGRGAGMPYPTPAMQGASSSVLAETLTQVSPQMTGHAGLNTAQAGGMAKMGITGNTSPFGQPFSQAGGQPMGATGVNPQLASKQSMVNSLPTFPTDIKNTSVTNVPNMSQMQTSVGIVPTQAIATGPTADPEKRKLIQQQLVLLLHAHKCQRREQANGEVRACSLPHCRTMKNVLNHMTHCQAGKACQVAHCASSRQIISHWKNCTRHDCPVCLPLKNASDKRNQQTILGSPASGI
Experimental: The above-described assay can also be used to characterize the interaction between nuclear receptors with co-activators as, e.g., by determining the binding constant for that interaction. […] Saturating amounts of PPARγ agonist (10 μM BRL49653) were used. Increasing concentrations of non-biotinylated hCBP1-453 were used to titrate away biotin-hCBP-PPARγ1LBD complex and decrease the fluorescence energy transfer. A Kd of 300 nM for the interaction between hCBP1-453 and PPARγ1LBD can be derived from the results illustrated in FIG. 6 and this Kd (300 nM) is a measurement of the affinity between CBP and PPARγ.

[2] = target: non-biotinylated hCBP1-453 (NH2-terminal amino acids 1-453 of human CBP, cleaved from GST) (human, UniProt Q92793 1-453); test: FRET competition: increasing non-biotinylated hCBP1-453 displaces biotin-hCBP from PPARγ1LBD, saturating agonist (10 µM BRL49653)
Experimental: The above-described assay can also be used to characterize the interaction between nuclear receptors with co-activators as, e.g., by determining the binding constant for that interaction. […] Saturating amounts of PPARγ agonist (10 μM BRL49653) were used.

[3] = target: B3; test: FRET, Eu3+K-hCBP1-113 + biotin-hPPARγ1LBD + SA-XL665, PBS
[4] = target: B2; test: FRET, Eu3+K-hCBP1-113 (100 nM) + biotin-hPPARγ1LBD (100 nM) + SA-XL665 (100 nM), 1 µM AD5075, PBS
[5] = target: B2; test: FRET, same format without agonist (vehicle), HEPES + 0.05% NP40; background control
[6] = target: B2; test: FRET, same format without agonist (0.1% DMSO vehicle), PBS; background control
[7] = target: B2; test: FRET, Eu3+K-hCBP1-113 + biotin-hPPARγ1LBD + SA-XL665, 1 µM AD5075, HEPES + 0.05% NP40
[8] = target: B2; test: FRET, GST-hCBP1-113 + Eu3+K anti-GST antibody + biotin-hPPARγ1LBD (100 nM) + SA-XL665 (500 nM), 1 µM AD5075, HEPES + 0.05% NP40
Description: (§1) In order to get an even better signal-noise ratio, the above-described format was modified slightly for experiment 3.

[9] = target: B2; test: FRET, experiment 3 format, HEPES + 0.05% NP40
Description: as §1

hCBP1-453: NH2-terminal 1-453 amino acids of human CBP, expressed in E. coli as GST fusion and cleaved
Kd [1]: 300 nM

B1: GST-hPPARγ1LBD (glutathione S-transferase fused to amino acids 176-478 of human PPARγ1) (receptor)
chain: SHNAIRFGRIAQAEKEKLLAEISSDIDQLNPESADLRQALAKHLYDSYIKSFPLTKAKARAILTGKTTDKSPFVIYDMNSLMMGEDKIKFKHITPLQEQSKEVAIRIFQGCQFRSVEAVQEITEYAKSIPGFVNLDLNDQVTLLKYGVHEIIYTMLASLMNKDGVLISEGQGFMTREFLKSLRKPFGDFMEPKFEFAVKFNALELDDSDLAIFIAVIILSGDRPGLLNVKPIEDIQDNLLQALELQLKLNHPESSQLFAKLLQKMTDLRQIVTEHVQLLQVIKKTETDMSLHPLLQEIYKDLY
notes: Uncleaved fusion, detected in the assay by Eu3+K-labeled anti-GST antibody; not shown: glutathione S-transferase (GST) of the pGEX-KG vector (Guan & Dixon 1991); pGEX-KG linker between GST and the LBD
Kd [2]: 300 nM

B2
binding result [3]: binds

B3
Emission ratio with AD5075 [4]: 1130 665 nm/620 nm ratio x 10,000
Emission ratio with vehicle [5]: 617 665 nm/620 nm ratio x 10,000
Emission ratio with vehicle [6]: 1070 665 nm/620 nm ratio x 10,000
Emission ratio with AD5075 [7]: 967 665 nm/620 nm ratio x 10,000

B4: GST-hCBP1-113 (glutathione S-transferase fused to amino acids 1-113 of human CBP) (other)
chain: MAENLLDGPPNPKRAKLSSPGFSANDSTDFGSLFDLENDLPDELIPNGGELGLLNSGNLVPDAASKHKQLSELLRGGSGSSINPGIGNVSASSPVQQGLGGQAQGQPNSANMA
notes: Uncleaved fusion, detected in the assay by Eu3+K-labeled goat anti-GST antibody (Pharmacia 27-4577-01); also called GST-CBP fusion protein; not shown: glutathione S-transferase (GST) of the pGEX expression vector (Pharmacia Biotech); pGEX linker with thrombin site between GST and CBP
Emission ratio with vehicle [5]: 536 665 nm/620 nm ratio x 10,000
Emission ratio with AD5075 [8]: 1080 665 nm/620 nm ratio x 10,000
signal-noise ratio (with AD5075 against without) [9]: 2 fold
